{"source": "patent US10980859B2", "about": "“In vivo individualized systemic immunotherapeutic method and device” (Hangzhou Converd Co., Ltd., priority 2013, dated 2021)", "molecules": {"B1": {"name": "murine GM-CSF: murine granulocyte-macrophage colony-stimulating factor (PeproTech, Cat#96-315-03-1000) (protein, UniProt P01587 18-141, looked up)", "Granulocyte-macrophage …": "APTRSPITVTRPWKHVEAIKEALNLLDDMPVTLNEEVEVVSNEFSFKKLTCVQTRLKIFEQGLRGNFTKLKGALNMTASYYQTYCPPTPETDCETQVTTYADFIDSLKTFLTDIPFECKKPGQK"}}, "key": {"[1]": {"test_system": "Ly-6G+ DC precursors and CD11b+ DC in spleen", "assay": "Flow cytometric analysis of GM-CSF induced expansion of DC and DC precursor in normal animals", "format": "in vivo", "settings": "s.c., healthy C57BL/6 mice", "protocol": "Spleen Tissue Dissociation (for FIG. 6-8)\nBriefly, mice were killed, and spleens were removed into cold culture medium and processed immediately. Surrounding mouse tissue and fat were removed. The spleens were minced into 2-3 mm fragments, and then crushed in cold culture medium using a flat tail of syringe piston. The spleen fragments were mixed up and down several times using a 1.5 mL micropipette with a tip cut to a diameter adapted to tissue fragment size. After that, the fragments were filtered through a […] nylon mesh cell strainer (BD Biosciences, San Diego, Calif., USA). The released cells were centrifuged at 1200 RPM for 2 min and stored in cold culture medium with 30% (v/v) FCS at 4° C. All cells from all incubation periods were pooled and counted.\nFlow Cytometric Analysis of GM-CSF Induced Expansion of DC and DC Precursorin Normal Animals (for FIG. 6, 7)\n52 male 6-8 weeks old C57BL/6 mice were randomly numbered and then divided into 13 groups depended on the random number. 12 groups were subcutaneously (s.c.) administered murine GM-CSF (PeproTech, Cat#96-315-03-1000) 2 μg on their back of the ribs, single injection from day 1 to 12 respectively. The last group was control. After 13 days, all animals were sacrificed. […]"}, "CD11b+ DC in spleen": {"test_system": "CD11b+ DC in spleen", "assay": "Flow cytometric analysis of GM-CSF induced expansion of DC in B16 melanoma cell murine model", "format": "in vivo, C57BL/6 mice", "settings": "s.c.", "description": "Animal Model (for FIGS. 5-11)\nThe male immunocompetent C57BL/6 mice were purchased from Shanghai Experimental Animal Center (Shanghhai, China) and maintained in the animal facility at Tongji University (Shanghai, China) according to the animal research committee's guidelines of Tongji University. To establish the tumor-bearing animal model, the male immunocompetent C57BL/6 mice 6-8 weeks old, were subcutaneously (s.c.) inoculated on their back of the ribs with 2×10^6 B16 cells, and then monitored daily for tumor growth. After 6 days (when the tumors grew up to a mean tumor volume of around 70-100 mm^3), these tumor-bearing animals were randomly numbered and then divided into groups depended on the random number. Tumor volume was measured with a caliper each three days and calculated using the following formula: [L×W^2]/2 (L=length of tumor; W=width of tumor). […]\nBriefly, mice were killed, and spleens were removed into cold culture medium and processed immediately. […] All cells from all incubation periods were pooled and counted. […]\n63 male 6-8 weeks old C57BL/6 mice were subcutaneously (s.c.) inoculated on their back of the ribs with 2×10^6 B16 cells, and then monitored daily for tumor growth. […] After another 1.5, 2.5, 3.5 and 4.5 days, indicated groups were sacrificed and analyzed, respectively. […]"}, "[2]": {"test_system": "CD8+ TIL infiltration in B16 tumor", "assay": "Immunofluorescence analysis of CD8+ TIL infiltration in tumor", "format": "in vivo, C57BL/6 mice", "settings": "B16 tumor-bearing mice", "description": "Systemic Immunotherapeutic Combination Therapy (for FIG. 10, 11, 12)\n72 male 6-8 weeks old C57BL/6 mice were subcutaneously (s.c.) inoculated on their back of the ribs with 2×10^6 B16 cells, and then monitored daily for tumor growth. These tumor-bearing animals were randomly numbered and then divided into 9 groups depended on the random number. Indicated groups were subjected to OVs (H101, 4×10^9 VPs) therapy i.t. and/or GM-CSF s.c. and/or PD-L1 mab (eBioscience, Cat#16-5982-85) i.p. or PBS (pH 7.4) only s.c. at indicated time points. After day 13, all animals were sacrificed and analyzed. Grouping and experiment design are illustrated in FIG. 17.\nImmunofluorescence Analysis of CD8^+ TIL Infiltration in Tumor Using Systemic Immunotherapeutic Combination Therapy (for FIG. 12)\nThe level of CD8^+ TIL infiltration in tumor was determined by immunofluorescence staining. […] After the treatment with antifade mounting medium, fluorescence signals were detected under fluorescence microscope (BX43, OLYMPUS). Fluorescence images were analyzed using Image-Pro Plus 6.0 software and the histogram was made by GraphPad Prism 5 software and p<0.05 was considered statistically significant."}}, "data": [{"molecule": "B1", "values": [{"measurement": "CD11b+ DC in spleen", "setting": "[1]", "value": "induces expansion of CD11b^+ DC at day 2-4"}, {"measurement": "Ly-6G+ DC precursors in spleen", "setting": "[1]", "value": "induces expansion of Ly-6G^+ DC precursors at day 1"}, {"measurement": "CD11b+ DC in spleen", "setting": "CD11b+ DC in spleen", "value": "induces up-regulation of CD11b^+ DC in spleen at Day 3.5"}, {"measurement": "CD8+ TIL infiltration in tumor", "setting": "[2]", "value": "induces medium CD8^+ TIL infiltration"}]}]}
